Measured values taken from patent publication US20200330603A1, “PEPTIDES FOR RENAL THERAPY” (FRED HUTCHINSON CANCER RESEARCH CENTER, priority 2015, published 2020).
“And” between values parts separate entries of the source, which are not always exact repeats. Equal entries are not always repeated.

System: not listed separately
Test: Blood urea nitrogen (BUN) assay in plasma, renal biocompatibility (Example 4)
Format: in vivo, mice
Conditions: 100 nmol per mouse intravenously, after 24 hours, one value per mouse
Method: This example describes renal biocompatibility of peptides of this disclosure. The peptides of SEQ ID NO: 18, SEQ ID NO: 20, SEQ ID NO: 21, SEQ ID NO: 26, SEQ ID NO: 36, SEQ ID NO: 39, SEQ ID NO: 45 and SEQ ID NO: 53 were intravenously dosed into mice at 100 nmol per mouse. After 24 hours, mice were anesthesized with Ketamine-Xylazine and euthanized. Plasma and kidneys were removed as quickly as possible after euthanization. A blood urea nitrogen (BUN) assay was performed to assess renal toxicity with a commercially available kit.
The average BUN concentration in plasma for naïve mice was 25 mg/dL, with a standard error of 2 mg/dL. The average BUN concentration in plasma for peptide-dosed mice was 21, with a standard error of 1 mg/dL.

Sequence | Peptide BUN
GGYSRCQLQGFNCVVRSYGLPTIPCCRGLTCRSYFPGSTYGRCQRY [SEQ ID NO: 53] | 19 mg/dL and 22 mg/dL
GSDRDSCIDKSRCSKYGYYQECQDCCKKAGHNGGTCMFFKCKCA [SEQ ID NO: 21] | 23 mg/dL and 17 mg/dL
GSSFGLCRLRRGFCARGRCRFPSIPIGRCSRFVQCCRRVW [SEQ ID NO: 45] | 21 mg/dL and 22 mg/dL

System: not listed separately
Test: Plasma BUN, assessment of renal injury (Example 14)
Format: in vivo, mice
Conditions: Table 3; 100 nmol iv (approximately 16 mg/kg), 24 hours post-peptide administration
Method: (§1) This example illustrates assessment of renal injury by peptides of this disclosure. Mice were injected intravenously at a dose of 100 nmol, which is approximately 16 mg/kg. PBS was administered as a negative control. At 24 hours post-peptide administration, mice were euthanized and plasma blood urea nitrogen (BUN) and plasma creatinine were measured. The blood urea nitrogen (BUN) assay was performed to assess renal toxicity with a commercially available kit. Plasma creatinine concentrations were determined using the colorimetrically corrected Jaffe reaction method. Additionally, the kidneys from these mice were removed, sectioned, and stained using periodic acid Schiff (PAS). […] Histological analysis corroborated the mRNA/protein data.

Sequence | Plasma BUN
GGYSRCQLQGFNCVVRSYGLPTIPCCRGLTCRSYFPGSTYGRCQRY [SEQ ID NO: 53] | 20.5 mg/dL
GSDRDSCIDKSRCSKYGYYQECQDCCKKAGHNGGTCMFFKCKCA [SEQ ID NO: 21] | 20 mg/dL
GSSFGLCRLRRGFCARGRCRFPSIPIGRCSRFVQCCRRVW [SEQ ID NO: 45] | 21.5 mg/dL

System: not listed separately
Test: Plasma creatinine, Jaffe reaction method (Example 14)
Format: in vivo, mice
Conditions: Table 3; 100 nmol iv, 24 hours post-peptide administration
Method: as §1

Sequence | Plasma Creatinine
GGYSRCQLQGFNCVVRSYGLPTIPCCRGLTCRSYFPGSTYGRCQRY [SEQ ID NO: 53] | 0.35 mg/dL
GSDRDSCIDKSRCSKYGYYQECQDCCKKAGHNGGTCMFFKCKCA [SEQ ID NO: 21] | 0.33 mg/dL
GSSFGLCRLRRGFCARGRCRFPSIPIGRCSRFVQCCRRVW [SEQ ID NO: 45] | 0.39 mg/dL

System: not listed separately
Test: Kidney histology, periodic acid Schiff (PAS) stain
Format: in vivo, mice
Conditions: 24 hours after intravenous administration of 100 nmol
Method: as §1

Sequence | renal physiology (PAS histology, FIG. 24)
GGYSRCQLQGFNCVVRSYGLPTIPCCRGLTCRSYFPGSTYGRCQRY [SEQ ID NO: 53] | normal renal physiology
GSDRDSCIDKSRCSKYGYYQECQDCCKKAGHNGGTCMFFKCKCA [SEQ ID NO: 21] | normal renal physiology
GSSFGLCRLRRGFCARGRCRFPSIPIGRCSRFVQCCRRVW [SEQ ID NO: 45] | normal renal physiology

System: not listed separately
Test: Whole body autoradiography of 14C labeled peptides, renal cortex and blood
Format: in vivo, mice
Conditions: renal cortex vs blood from the ventricle, 100 nmol iv, 3 hours
Excerpt: This example describes radiolabeling of peptides of this disclosure. Several knotted peptides were radiolabeled by reductive methylation with ^14C formaldehyde and sodium cyanoborohydride with standard techniques. The sequences were engineered to have the amino acids, “G” and “S” at the N terminus. See Methods in Enzymology V91:1983 p. 570 and JBC 254(11):1979 p. 4359. An excess of formaldehyde was used to ensure complete methylation (dimethylation of every free amine). The labeled peptides were isolated via solid-phase extraction on Strata-X columns (Phenomenex 8B-S100-AAK), rinsed with water with 5% methanol, and recovered in methanol with 2% formic acid. Solvent was subsequently removed in a blowdown evaporator with gentle heat and a stream of nitrogen gas. The final product was verified and characterized by high performance liquid chromatography (HPLC).
This example illustrates accumulation of peptides of the present disclosure in kidneys measured by whole body autoradiography. Peptides of the present disclosure were radiolabeled as described in EXAMPLE 2. 100 nmol of ^14C labeled peptides were administered intravenously in mice. Radiolabeled peptide signal was quantified in the renal cortex and blood from the ventricle in 2-3 sections per mouse in 2 mice total. Whole body autoradiography analysis was performed with AIDA.
SEQ ID NO: 55 and SEQ ID NO: 119 ([…]), a linearized version of SEQ ID NO: 55, were radiolabeled with ^14C as described in EXAMPLE 2 and administered intravenously in mice at a dose of 100 nmol. Radiolabeled peptide signal was quantified in the renal cortex and blood from the ventricle in 2-3 sections per mouse in 2 mice total. Whole body autoradiography analysis was performed with AIDA.

Sequence | Signal ratio Kidney:Blood (3 hours)
GSGDCLPHLRRCRENNDCCSRRCRRRGANPERRCR [SEQ ID NO: 59] | 31.2
GSGVPINVRCRGSRDCLDPCRRAGMRFGRCINSRCHCTP [SEQ ID NO: 55] | 42.2 and 42.4
GSGVPINVRSRGSRDSLDPSRRAGMRFGRSINSRSHSTP [SEQ ID NO: 119, reference compound] | 5.1
GSQVQTNVRCQGGSCASVCRREIGVAAGRCINGRCVCYRN [SEQ ID NO: 58] | 9.9
GSSERDCIRHLQRCRENRDCCSRRCSRRGTNPERRCR [SEQ ID NO: 56] | 29.9
GSVRIPVSCRHSGQCLRPCRDAGMRFGRCMNGRCDCTPR [SEQ ID NO: 57] | 8

Same assay, conditions: renal cortex vs blood from the ventricle, 100 nmol iv, 24 hours

Sequence | Signal ratio Kidney:Blood (24 hours)
GSGDCLPHLRRCRENNDCCSRRCRRRGANPERRCR [SEQ ID NO: 59] | 6.1
GSGVPINVRCRGSRDCLDPCRRAGMRFGRCINSRCHCTP [SEQ ID NO: 55] | 10.7
GSGVPINVRSRGSRDSLDPSRRAGMRFGRSINSRSHSTP [SEQ ID NO: 119, reference compound] | 6.9
GSQVQTNVRCQGGSCASVCRREIGVAAGRCINGRCVCYRN [SEQ ID NO: 58] | 4.1
GSSERDCIRHLQRCRENRDCCSRRCSRRGTNPERRCR [SEQ ID NO: 56] | 7.5
GSVRIPVSCRHSGQCLRPCRDAGMRFGRCMNGRCDCTPR [SEQ ID NO: 57] | 6.4

Same assay, conditions: renal cortex, 100 nmol 14C labeled peptide iv, 3 hours

Sequence | Pixel density-Bkg/area (3 hours)
GSGDCLPHLRRCRENNDCCSRRCRRRGANPERRCR [SEQ ID NO: 59] | 3.47E+07
GSGVPINVRCRGSRDCLDPCRRAGMRFGRCINSRCHCTP [SEQ ID NO: 55] | 2.73E+07
GSGVPINVRSRGSRDSLDPSRRAGMRFGRSINSRSHSTP [SEQ ID NO: 119, reference compound] | 1.71E+06
GSQVQTNVRCQGGSCASVCRREIGVAAGRCINGRCVCYRN [SEQ ID NO: 58] | 7.73E+06
GSSERDCIRHLQRCRENRDCCSRRCSRRGTNPERRCR [SEQ ID NO: 56] | 1.48E+07
GSVRIPVSCRHSGQCLRPCRDAGMRFGRCMNGRCDCTPR [SEQ ID NO: 57] | 4.63E+06

Same assay, conditions: renal cortex, 100 nmol 14C labeled peptide iv, 24 hours

Sequence | Pixel density-Bkg/area (24 hours)
GSGDCLPHLRRCRENNDCCSRRCRRRGANPERRCR [SEQ ID NO: 59] | 2.13E+06
GSGVPINVRCRGSRDCLDPCRRAGMRFGRCINSRCHCTP [SEQ ID NO: 55] | 2.25E+06
GSGVPINVRSRGSRDSLDPSRRAGMRFGRSINSRSHSTP [SEQ ID NO: 119, reference compound] | 2.41E+06
GSQVQTNVRCQGGSCASVCRREIGVAAGRCINGRCVCYRN [SEQ ID NO: 58] | 1.30E+06
GSSERDCIRHLQRCRENRDCCSRRCSRRGTNPERRCR [SEQ ID NO: 56] | 2.30E+06
GSVRIPVSCRHSGQCLRPCRDAGMRFGRCMNGRCDCTPR [SEQ ID NO: 57] | 1.03E+06

System: trypsin
Test: Peptide stability in the presence of trypsin, RP-HPLC
Format: in vitro ADME
Conditions: 5 μg trypsin, pH 7.0, 30 minutes at 37.5° C.
Method: (§2) This example describes peptide stability in the presence of pepsin, trypsin, a reducing agent, or elevated temperature. Peptides were first suspended in 500 µl of ddH2O to a stock concentration of 2 mg/ml. […] These reactions were then quenched with 5 μg of soybean trypsin inhibitor (I) and, in some cases, 10 mM dithiothreitol (DTT). […] Temperature stability was tested by incubating peptides in non-reducing conditions at 70° C. for 1 hour. Stability was evaluated by RP-HPLC.

Sequence | Trypsin
GSACLAEYQKCEGSTVPCCPGLSCSAGRFRKTKLCTK [SEQ ID NO: 32] | Not Resistant
GSACQFWSCNSSCISRGYRQGYCWGIQYKYCQCQ [SEQ ID NO: 34] | Partially Resistant
GSAEIIRCSGTRECYAPCQKLTGCLNAKCMNKACKCYGCV [SEQ ID NO: 28] | Not Resistant
GSAVCNLKRCQLSCRSLGLLGKCIGDKCECVKHG [SEQ ID NO: 22] | Partially Resistant
GSCIGEGVPCDENDPRCCFGLVCLKPTLHGIWYKSYYCYKK [SEQ ID NO: 30] | Partially Resistant
GSDCLPHLRRCRADNDCCGRRCRRRGTNAERRCR [SEQ ID NO: 1] | Partially Resistant
GSDRDSCIDKSRCSKYGYYQECQDCCKKAGHNGGTCMFFKCKCA [SEQ ID NO: 21] | Partially Resistant
GSECLEIFKACNPSNDQCCKSSKLVCSRKTRWCKYQIG [SEQ ID NO: 38] | Not Resistant

System: pepsin
Test: Peptide stability in the presence of pepsin, RP-HPLC
Format: in vitro ADME
Conditions: 20 μg pepsin, pH 1.05, 30 minutes at 37.5° C.
Method: as §2

Sequence | Pepsin
GSACLAEYQKCEGSTVPCCPGLSCSAGRFRKTKLCTK [SEQ ID NO: 32] | Resistant
GSECLEIFKACNPSNDQCCKSSKLVCSRKTRWCKYQIG [SEQ ID NO: 38] | Resistant

System: not listed separately
Test: Temperature stability at 70° C., RP-HPLC
Format: physicochemical
Conditions: non-reducing conditions, 70° C. for 1 hour
Method: as §2

Sequence | Temperature (70° C.)
GSACLAEYQKCEGSTVPCCPGLSCSAGRFRKTKLCTK [SEQ ID NO: 32] | Resistant
GSECLEIFKACNPSNDQCCKSSKLVCSRKTRWCKYQIG [SEQ ID NO: 38] | Resistant

System: not listed separately
Test: Peptide stability to a reducing agent (DTT), RP-HPLC
Format: physicochemical
Conditions: 10 mM DTT in PBS, room temperature, 30 minutes
Method: as §2

Sequence | Reduction
GSACLAEYQKCEGSTVPCCPGLSCSAGRFRKTKLCTK [SEQ ID NO: 32] | Not Resistant
GSACQFWSCNSSCISRGYRQGYCWGIQYKYCQCQ [SEQ ID NO: 34] | Not Resistant
GSAEIIRCSGTRECYAPCQKLTGCLNAKCMNKACKCYGCV [SEQ ID NO: 28] | Partially Resistant
GSAVCNLKRCQLSCRSLGLLGKCIGDKCECVKHG [SEQ ID NO: 22] | Not Resistant
GSCIGEGVPCDENDPRCCFGLVCLKPTLHGIWYKSYYCYKK [SEQ ID NO: 30] | Not Resistant
GSDCLPHLRRCRADNDCCGRRCRRRGTNAERRCR [SEQ ID NO: 1] | Not Resistant
GSDRDSCIDKSRCSKYGYYQECQDCCKKAGHNGGTCMFFKCKCA [SEQ ID NO: 21] | Not Resistant
GSECLEIFKACNPSNDQCCKSSKLVCSRKTRWCKYQIG [SEQ ID NO: 38] | Not Resistant
